The text below walks through data of article PMC9365698 (2022).

Assay in all cases: SPR
In general terms: SPR reads the build-up and loss of mass on a sensor chip optically.

The target of one data set is T1, PI16 (Homo sapiens).
T1 chain: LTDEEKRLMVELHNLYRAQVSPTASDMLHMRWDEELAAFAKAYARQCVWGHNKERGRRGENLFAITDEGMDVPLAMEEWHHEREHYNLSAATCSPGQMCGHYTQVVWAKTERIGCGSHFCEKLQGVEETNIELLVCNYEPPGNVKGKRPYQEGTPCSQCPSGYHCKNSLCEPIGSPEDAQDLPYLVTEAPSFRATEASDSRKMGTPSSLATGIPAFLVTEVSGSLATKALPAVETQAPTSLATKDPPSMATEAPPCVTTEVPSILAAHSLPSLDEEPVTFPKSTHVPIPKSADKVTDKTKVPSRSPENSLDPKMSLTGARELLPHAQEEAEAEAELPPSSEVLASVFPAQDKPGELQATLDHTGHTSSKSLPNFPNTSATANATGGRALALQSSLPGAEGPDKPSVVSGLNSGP

The target in a further data set is JAG1 (human, UniProt P78504 34-1067, biotin on the biotin-acceptor site (enzymatic, co-transfected BirA)).
A further data set deals with FGFR2 (Homo sapiens).
The target of the next data set is T2, CDH2 (Homo sapiens).
T2 chain: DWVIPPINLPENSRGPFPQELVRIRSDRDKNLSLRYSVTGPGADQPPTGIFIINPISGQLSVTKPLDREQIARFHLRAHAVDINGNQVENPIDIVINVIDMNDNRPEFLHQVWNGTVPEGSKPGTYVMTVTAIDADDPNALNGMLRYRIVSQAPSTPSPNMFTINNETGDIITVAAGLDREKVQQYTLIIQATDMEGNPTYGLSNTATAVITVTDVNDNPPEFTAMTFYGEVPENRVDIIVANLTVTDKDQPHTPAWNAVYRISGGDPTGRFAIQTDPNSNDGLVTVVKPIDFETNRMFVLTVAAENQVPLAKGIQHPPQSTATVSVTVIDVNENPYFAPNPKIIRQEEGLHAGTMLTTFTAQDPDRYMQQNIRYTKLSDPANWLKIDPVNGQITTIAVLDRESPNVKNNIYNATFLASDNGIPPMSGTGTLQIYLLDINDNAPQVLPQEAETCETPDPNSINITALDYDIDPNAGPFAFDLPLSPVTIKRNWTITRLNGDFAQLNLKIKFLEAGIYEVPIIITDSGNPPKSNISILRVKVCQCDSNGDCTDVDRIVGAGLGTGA

The data set “SPR” deals with the molecule itself.
The target in the next data set is T3, PVR (human, UniProt P15151 21-343, biotin on the biotin-acceptor site (enzymatic, co-transfected BirA)).
T3 chain: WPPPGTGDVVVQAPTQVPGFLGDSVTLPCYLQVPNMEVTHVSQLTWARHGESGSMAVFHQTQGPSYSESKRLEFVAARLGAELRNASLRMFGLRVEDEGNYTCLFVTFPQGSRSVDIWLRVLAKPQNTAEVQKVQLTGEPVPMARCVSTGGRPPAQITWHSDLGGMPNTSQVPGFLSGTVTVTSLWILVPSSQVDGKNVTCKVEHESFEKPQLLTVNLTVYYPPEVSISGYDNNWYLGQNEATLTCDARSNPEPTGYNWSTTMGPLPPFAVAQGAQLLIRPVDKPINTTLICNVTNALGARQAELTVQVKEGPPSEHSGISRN

A further data set concerns the target T4, TNR16 (Homo sapiens).
T4 chain: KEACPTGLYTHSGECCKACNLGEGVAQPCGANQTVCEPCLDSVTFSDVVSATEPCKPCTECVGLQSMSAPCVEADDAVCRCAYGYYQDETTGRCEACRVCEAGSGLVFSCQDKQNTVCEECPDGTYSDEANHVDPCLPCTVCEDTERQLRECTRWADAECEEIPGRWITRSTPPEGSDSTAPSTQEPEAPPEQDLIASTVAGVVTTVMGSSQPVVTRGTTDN

In another data set the target is T5, CNTN1 (human, UniProt Q12860 21-993, biotin on the biotin-acceptor site (enzymatic, co-transfected BirA)).
T5 chain: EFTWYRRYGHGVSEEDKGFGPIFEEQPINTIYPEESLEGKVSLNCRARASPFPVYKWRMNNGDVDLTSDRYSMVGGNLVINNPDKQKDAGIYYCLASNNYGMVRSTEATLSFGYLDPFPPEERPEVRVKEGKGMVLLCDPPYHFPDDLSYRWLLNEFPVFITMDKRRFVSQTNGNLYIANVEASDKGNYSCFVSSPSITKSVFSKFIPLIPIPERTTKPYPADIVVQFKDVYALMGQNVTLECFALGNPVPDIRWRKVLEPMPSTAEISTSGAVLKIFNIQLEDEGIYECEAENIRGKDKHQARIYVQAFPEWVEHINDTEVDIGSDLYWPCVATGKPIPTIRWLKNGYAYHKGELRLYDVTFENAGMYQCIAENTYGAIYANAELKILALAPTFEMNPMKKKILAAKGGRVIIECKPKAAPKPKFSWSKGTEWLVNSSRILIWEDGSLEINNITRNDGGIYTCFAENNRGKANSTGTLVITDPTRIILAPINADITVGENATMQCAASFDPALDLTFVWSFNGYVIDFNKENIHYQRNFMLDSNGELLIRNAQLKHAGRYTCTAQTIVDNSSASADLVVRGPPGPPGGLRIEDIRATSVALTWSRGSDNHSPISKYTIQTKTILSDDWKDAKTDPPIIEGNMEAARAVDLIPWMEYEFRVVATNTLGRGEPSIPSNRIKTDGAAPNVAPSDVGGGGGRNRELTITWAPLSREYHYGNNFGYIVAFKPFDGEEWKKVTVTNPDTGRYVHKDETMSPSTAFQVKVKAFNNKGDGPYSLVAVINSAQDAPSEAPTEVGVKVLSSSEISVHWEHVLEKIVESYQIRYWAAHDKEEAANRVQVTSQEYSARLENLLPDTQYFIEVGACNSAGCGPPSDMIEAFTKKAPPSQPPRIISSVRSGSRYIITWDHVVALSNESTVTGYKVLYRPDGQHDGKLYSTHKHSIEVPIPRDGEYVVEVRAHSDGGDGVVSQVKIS

B1: TNR21 (protein)
chain: QPEQKASNLIGTYRHVDRATGQVLTCDKCPAGTYVSEHCTNTSLRVCSSCPVGTFTRHENGIEKCHDCSQPCPWPMIEKLPCAALTDRECTCPPGMFQSNATCAPHTVCPVGWGVRKKGTETEDVRCKQCARGTFSDVPSSVMKCKAYTDCLSQNLVVIKPGTKETDNVCGTLPSFSSSTSPSPGTAIFPRPEHMETHEVPSSTYVPKGMNSTESNSSASVRPKVLSSIQEGTVPDNTSSARGKEDVNKTLPNLQVVNHQQGPHHRHILKLLPSMEATGGEKSSTPIKGPKRGHPRQNLHKHFDINEH
One may read the koff as the rate constant with which the complex falls apart. A high value points to a short-lived complex. For B1, in the data set with PI16, the koff is roughly 2 s⁻¹.

B2: VASN (receptor)
chain: CPSGCQCSQPQTVFCTARQGTTVPRDVPPDTVGLYVFENGITMLDAGSFAGLPGLQLLDLSQNQIASLPSGVFQPLANLSNLDLTANRLHEITNETFRGLRRLERLYLGKNRIRHIQPGAFDTLDRLLELKLQDNELRALPPLRLPRLLLLDLSHNSLLALEPGILDTANVEALRLAGLGLQQLDEGLFSRLRNLHDLDVSDNQLERVPPVIRGLRGLTRLRLAGNTRIAQLRPEDLAGLAALQELDVSNLSLQALPGDLSGLFPRLRLLAAARNPFNCVCPLSWFGPWVRESHVTLASPEETRCHFPPKNAGRLLLELDYADFGCPATTTTATVPTTRPVVREPTALSSSLAPTWLSPTEPATEAPSPPSTAPPTVGPVPQPQDCPPSTCLNGGTCHLGTRHHLACLCPEGFTGLYCESQMGQGTRPSPTPVTPRPPRSLTLGIEPVSPTSLRVGLQRYLQGSSVQLRSLRLTYRNLSGPDKRLVTLRLPASLAEYTVTQLRPNATYSVCVMPLGPGRVPEGEEACGEAHTPPAVHSNHAPVTQAREGNLP
modifications: biotin on the biotin-acceptor site (enzymatic, co-transfected BirA)
As for B2, in the data set with JAG1, the koff was roughly 0.1 s⁻¹.

B3: FCER2 (protein)
chain: DTTQSLKQLEERAARNVSQVSKNLESHHGDQMAQKSQSTQISQELEELRAEQQRLKSQDLELSWNLNGLQADLSSFKSQELNERNEASDLLERLREEVTKLRMELQVSSGFVCNTCPEKWINFQRKCYYFGKGTKQWVHARYACDDMEGQLVSIHSPEEQDFLTKHASHTGSWIGLRNLDLKGEFIWVDGSHVDYSNWAPGEPTSRSQGEDCVMMRGSGRWNDAFCDRKLGAWVCDRLATCTPPASEGSAESMGPDSRPDPDGRLPTPSAPLHS
B3 yielded a koff with FGFR2 of roughly 0.01 s⁻¹.

B4: FCER2 (protein)
chain: B3 chain
modifications: propeptide assumed removed
In the data set with CDH2, B4 gave a dissociation rate constant (koff) of roughly 0.6 s⁻¹.

B5: MPZL1 (protein)
chain: SALEVYTPKEIFVANGTQGKLTCKFKSTSTTGGLTSVSWSFQPEGADTTVSFFHYSQGQVYLGNYPPFKDRISWAGDLDKKDASINIENMQFIHNGTYICDVKNPPDIVVQPGHIRLYVVEKENLPV
Molecule B5 came in with a koff in the data set “SPR” of roughly 0.6 s⁻¹.

B6: KIR2DL5A (receptor)
chain: HEGGQDKPLLSAWPSAVVPRGGHVTLLCRSRLGFTIFSLYKEDGVPVPELYNKIFWKSILMGPVTPAHAGTYRCRGSHPRSPIEWSAPSNPLVIVVTGLFGKPSLSAQPGPTVRTGENVTLSCSSRSSFDMYHLSREGRAHEPRLPAVPSVNGTFQADFPLGPATHGGTYTCFGSLHDSPYEWSDPSDPLLVSVTGNSSSSSSSPTEPSSKTGIRRH
modifications: biotin on the biotin-acceptor site (enzymatic, co-transfected BirA)
B6 gave a koff with PVR of roughly 0.9 s⁻¹.

B7: CD80 (protein)
chain: VIHVTKEVKEVATLSCGHNVSVEELAQTRIYWQKEKKMVLTMMSGDMNIWPEYKNRTIFDITNNLSIVILALRPSDEGTYECVVLKYEKDAFKREHLAEVTLSVKADFPTPSISDFEIPTSNIRRIICSTSGGFPEPHLSWLENGEELNAINTTVSQDPETELYAVSSKLDFNMTTNHSFMCLIKYGHLRVNQTFNWNTTKQEHFPDN
In turn, B7 yielded a koff in the data set with TNR16 of roughly 1.4 s⁻¹.

B8: NRCAM (protein)
chain: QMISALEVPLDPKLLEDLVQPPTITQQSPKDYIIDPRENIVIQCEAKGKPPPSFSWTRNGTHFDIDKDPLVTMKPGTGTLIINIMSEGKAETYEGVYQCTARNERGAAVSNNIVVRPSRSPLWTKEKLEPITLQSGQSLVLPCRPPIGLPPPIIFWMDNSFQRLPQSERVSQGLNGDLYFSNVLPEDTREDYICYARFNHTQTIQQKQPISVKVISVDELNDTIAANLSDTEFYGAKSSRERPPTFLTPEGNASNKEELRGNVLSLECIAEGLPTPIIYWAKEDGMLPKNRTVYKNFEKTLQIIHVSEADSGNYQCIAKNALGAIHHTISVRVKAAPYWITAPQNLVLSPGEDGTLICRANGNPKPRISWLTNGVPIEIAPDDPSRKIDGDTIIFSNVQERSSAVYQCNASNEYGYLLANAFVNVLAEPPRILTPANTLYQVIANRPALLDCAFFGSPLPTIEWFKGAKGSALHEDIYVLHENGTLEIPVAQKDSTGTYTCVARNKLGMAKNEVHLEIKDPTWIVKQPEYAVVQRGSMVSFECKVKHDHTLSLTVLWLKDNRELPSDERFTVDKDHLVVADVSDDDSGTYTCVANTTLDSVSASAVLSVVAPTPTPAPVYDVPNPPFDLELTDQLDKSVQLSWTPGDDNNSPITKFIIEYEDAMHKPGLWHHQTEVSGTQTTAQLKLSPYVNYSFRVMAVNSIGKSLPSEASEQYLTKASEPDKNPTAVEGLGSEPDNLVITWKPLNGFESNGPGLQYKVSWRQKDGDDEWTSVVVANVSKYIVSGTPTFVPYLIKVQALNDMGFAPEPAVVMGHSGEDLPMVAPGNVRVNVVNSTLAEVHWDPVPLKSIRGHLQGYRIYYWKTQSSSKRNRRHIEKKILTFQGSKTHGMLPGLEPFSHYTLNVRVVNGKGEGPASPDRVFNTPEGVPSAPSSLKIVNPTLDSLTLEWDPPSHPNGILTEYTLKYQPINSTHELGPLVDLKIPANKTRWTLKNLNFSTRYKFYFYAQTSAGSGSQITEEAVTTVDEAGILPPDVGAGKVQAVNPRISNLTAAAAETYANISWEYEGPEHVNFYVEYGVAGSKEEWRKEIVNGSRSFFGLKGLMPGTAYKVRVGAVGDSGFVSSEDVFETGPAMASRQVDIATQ
Consider B8, for which, in the data set with CNTN1, the koff is roughly 0.7 s⁻¹.
